This is an account of results in patent US20230123431.

The target of data set [1] is T1, Gcv3p (H protein of the glycine cleavage system), lipoylated.
T1 chain: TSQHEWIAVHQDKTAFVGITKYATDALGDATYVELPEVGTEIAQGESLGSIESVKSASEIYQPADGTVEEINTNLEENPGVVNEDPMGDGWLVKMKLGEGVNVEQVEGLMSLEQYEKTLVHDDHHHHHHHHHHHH

Data set [2] addresses T2, Lat1p (lipoate-bound subunit of pyruvate dehydrogenase, PDH), P12695.
T2 chain: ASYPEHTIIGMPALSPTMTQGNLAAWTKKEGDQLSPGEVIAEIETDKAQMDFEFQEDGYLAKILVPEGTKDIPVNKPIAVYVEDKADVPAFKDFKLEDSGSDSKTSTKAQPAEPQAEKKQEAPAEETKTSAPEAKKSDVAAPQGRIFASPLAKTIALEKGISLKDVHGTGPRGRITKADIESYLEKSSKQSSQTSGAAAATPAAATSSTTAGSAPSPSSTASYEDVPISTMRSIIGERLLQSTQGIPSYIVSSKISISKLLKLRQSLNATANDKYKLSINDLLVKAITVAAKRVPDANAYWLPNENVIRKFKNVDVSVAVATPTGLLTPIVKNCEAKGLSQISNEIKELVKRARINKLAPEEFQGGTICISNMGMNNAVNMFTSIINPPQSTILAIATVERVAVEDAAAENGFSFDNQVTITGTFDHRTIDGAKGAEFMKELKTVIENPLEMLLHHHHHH

Data set [3] addresses T3, Kgd2p (lipoate-bound subunit of alpha-ketoglutarate dehydrogenase, KGDC), P19262.
T3 chain: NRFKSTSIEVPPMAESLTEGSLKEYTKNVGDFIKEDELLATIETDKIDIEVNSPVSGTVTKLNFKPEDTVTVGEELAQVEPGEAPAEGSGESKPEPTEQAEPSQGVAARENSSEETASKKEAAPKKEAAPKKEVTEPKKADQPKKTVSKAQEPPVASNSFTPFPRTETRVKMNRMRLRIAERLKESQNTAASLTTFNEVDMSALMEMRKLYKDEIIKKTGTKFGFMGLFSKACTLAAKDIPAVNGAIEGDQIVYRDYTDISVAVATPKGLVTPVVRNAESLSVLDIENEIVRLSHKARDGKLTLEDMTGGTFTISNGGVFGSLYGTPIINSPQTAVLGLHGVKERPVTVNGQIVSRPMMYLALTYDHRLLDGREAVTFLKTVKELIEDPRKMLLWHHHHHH

B1: lipoamidase from Enterococcus faecalis (EfLPA) (protein)
chain: MLSLRQSIRFFKPATRTLCSSRYLLQQKPMLAQESILETTVQTETESVTTETSQTVANLESETTSQTVMQEKESSSAIAESSSRNVVAVTTETTNEIQNSGTDGKAVSAESVFSEADYKQATALELATLVREKKVTSEELVKIALAITKRENPTLNAVITLREEAALTEAKALQDTGQPFLGVPLLLKGLGQSLKGESNTNGFGFLRDQVAGGTSTFVKALQNAGFIIIGQTNYPELGWKNISDSKLYGVSVNPWNPNHYSGGSSGGAGASVAAAFVPIASGSDAGGSIRIPASWTGTVGLKPSRGVIIGNSNSAKGQTVHFGLSRTVADTNALFETLLTKKDLPAGHLSQAQPIAYTTESPAGTPVSAEAKEAVAEAVAFLKDQGYTLVEVKHPVDGERLMKNYYTVAAGSAGIADFMARQKLKRPLERNDVELLTWALFQTGKNITSEETTAAWTDIALQAQAMDEFYQQYPILLTPTTAATAPSIDNPLLKPEHAAQMEKIDQLSPAEQKQLIYDQWLTAFTYTPFTQQANLFGHPALSVPTYVSKEGLPLGIQFNSALNEDRTLLQLGALFENNHKINQPHVEEPDKDKEPDASGEPEKDKDPNASGEPDKDKEPDASGEPDKDKEPDASGEPDKDKEPDASGKPDKDKETKTSEGPIEGKDQNQNPDKAGKTTSGSSLDNSLNSSANQGTKSTESTHAFSNKSMIGKQEQLPKKVLPKAGAEVPSTFWIVLGGAFLVTSGTIYIRKTRKHHHHHHHHHHHH
Regarding B1, in data set [1], the “lipoic acid released (LC-MS/MS, confirmed by GC-MS) after incubation of the purified proteins at 37 C for 2 h” value is listed as “Only the reaction of EfLPA with Gcv3p resulted in a peak with m/z 205.0360 (FIG. 5B) indicative of lipoic acid”. Also, the “lipoic acid released (LC-MS/MS) after incubation of the purified proteins at 37 C for 2 h” value in data set [2] and in data set [3] was “no lipoic acid was observed in the reaction mixtures containing EfLPA with Kgd2p or Lat1p individually” each time.
